Data as given in the nanobody polyreactivity screen of Harvey et al. (2022).

Test: yeast display, Sf9 membrane polyspecificity reagent, FACS + sequencing; frameworks hold sequencing errors
Outline: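 Nanobodies from a synthetic yeast display library (Saccharomyces cerevisiae BJ5465), induced 36–48 hours with galactose, were stained 1 hour at 4 °C with 10% biotinylated, detergent-solubilized Sf9 membrane reagent, enriched on streptavidin microbeads, then FACS-sorted. Anti-HA (expression) and streptavidin (reagent binding) fluorescence set low and high (top ~1%) gates. Polyreactivity labels come from the gate of origin. Genes were colony-PCR amplified, MiSeq 2 × 250 sequenced and filtered by CDR length.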

Row | Sequence | polyreactivity (PSR sort gate)
1 | QVNLVESGGVSVQAGGSLRLSCAASGLIFDKYAMGWYRQAPGKERELVAAITRSSGTTYYADSVKGRFTISRDNAKNTVYLLLISVTPEDTAVYYCPAPFIWGYWGVGYYYWGQGTHVTVSS | low polyreactivity
2 | QVQLVESGGGLVLAGGSLRLSCAASGIIFYRNAMGWYRQAPGKERELVAAITSSGGRTYYADSVKGRFTISRDNAKNTVYLQMNSLKPEDTAVYYCAATRMYWKIFYGDGDYWGQGTQVTVST | high polyreactivity
3 | QVQLVESRGGLVQAGGSLGLSCAASGRIFSGYAMGWYRKAPGKERELVAAISGSGGTTYYADSVKGRFTISRDNAKNTVYLQINSLKPEDTAVYYCAVVIGVGYGYYYWGQGTQVTVSS | low polyreactivity
4 | QVPLVESGGGLVQAGGSLRLSCAASGLTVSSYAMGWYRQAPGKERELVAVFSRTGGSTYYADSVKGRFTISRDNAKNTVYLQMNSLKPEDTAVYYCAARSYNGWRYDSWGQGTQVTVSS | high polyreactivity
5 | QVQLVESGGGLVQAGGSRLLSCAASGGTFSFYAMGWYRQAPAKEREFVAAITASDGSTYYADSLTGRFTISRDNAKNTVYLQMNSLKPEDTAVYYCAADAYGYKFNSWVQGTQVTVSS | low polyreactivity
6 | QVQLVESGGGLVQAGGSLRLSCAASGFIFGTYAMGWYRQAPGKERELVAAISRVGNTSYADSVKGRFTISRDNAKNTVYLQMNSLKPEDTAVYYCAADAPSWYDRQYDYWGQGTQVTVSS | low polyreactivity
7 | QVQLVESGGGLVQAGGSLRLSCAASGNNFWWNDMGWYRHAPGKERELVAAISWRGSSTYYADSVKGRFTISRDNAKYTVYLQMNSLKPEDSAVYYCAKPDRTCWLDGDYWGQGTQVTVSS | low polyreactivity
8 | QVQLVESGGLLVQAGGSLRLSCAASGSNSYRYDIVWYRQPPGKERELVATIRSGGSTNYADSVKGRFTISRDNAKNTVYLQMNSLKPEDTAVYYCASRLYARKKLHFSADSDYWGQGTQVSVSS | low polyreactivity
9 | QVQLVESGGGLVQAGGSRRLICAASGSIFYTNAMGWYRPAPAKERELVARISFSDGTTNYADSVKGRFTISRDNAKNTVYVQMNSLKPEDTAVYYCATDLYGRPVRFDYWGQGTQVTVSS | low polyreactivity
10 | QVQLVESGGGLVQAGGSLRLSCAASGSTFTQYAMGWYRQAPGKERELVATISRRGTRTYYADSVKGRFTISRDNAKNTVYLQMNSLKPEDTAVYYCAADNGPYRTIGYDSWGQGTQVTVSS | high polyreactivity
11 | QDQLVESGGGLVQAGGSLRLSCAATGSIFGFNTMGWYRQAPGKERELVPTINWRGGRTYYADSVKGRFTISRDNAKNTVYLLMNSLKPEDTAVYYFNTQGLAGQYQEHGYWGQGTQVTVSS | high polyreactivity
12 | QVQLVESGGGLVQAGGSLRLSCAASGSIFGAYTMGWYRQAPGKERELVAAITGGGITNYADSVKGRFTISRDNAKNTVYLQMNSLKPEDTAVYYCNAGYPPQTVVVGYDYWGQGTQVTVSS | low polyreactivity
13 | QVQLVESGGGLVQAGGSLRLSCAASGFTFVYNAMGWYRQAPGKERELVAAINSGGRTNYADSVKGRFTISRDNAKNTVYLQMNSLKPEDTAVYYCAAEVTSFSFGGDATEYYWGQGTQVTVSS | low polyreactivity
14 | QVQLVESGGGLVQAGGSLRLSCAASGSIFFIYAMGWYRQAPGTERELVATITSGGSTYYADSVKGRFTISRDNAKNTVYLQMNSLKPEDTAVYYCAVDEYYAFDYWGQGTQVTVSS | low polyreactivity
15 | QVQLVESGGGLVQAGGSLRLSCAASGRISVFNAMGWYREAPGKERELVAAITSGGSTNYADSVKGRFTISRDNAKNTVYLQMNSLKPEDTAVYYCNADVYHSHEPHYDYWGQGTQVTVSS | low polyreactivity
16 | QVQLVESGGGLVQAGGSLRLSCAASGSISVANAMGWYRQAPGKERELVAGITSSGSTYYADSVKGRFTISRDNAKNTVYLQMNSLKPEDTAVYYCNADVHYSTFYTVVVSLYYWGQGSQVTVSS | low polyreactivity
17 | QVQLVESGGGLVQAGGSLRLSCAASGFIYTSYTMGWYRQAPGKERELVAAISYRGGRTYYADSVNGRFTISRDNAKNTVYLQMNSLKPEVTAVYYCAADRVNREFDYWGQGTQVTVSS | high polyreactivity
18 | QVQLVESGGGLVQAGGSLRLSCAASGRIFKYYVMGWYRQAPGKERELVATISRRDASTYYADSVKGRFTISRDNAKNTVYLQMNSLKPEDTAVYYCNADRARSERIKYDYWGQGTQGTVSS | high polyreactivity
19 | QVQLVESGGGLVQAGGSLRLSCAASGSIFTSYAMGWYRHAPGKERELVAAITSTGGSTYYADSVKGRFTISRDNAKNTVYLQMNSLKPEDTAVYYCNADGGTPYDYWGQGTQVTVSS | low polyreactivity
20 | QVQLVESVGGLVQAGGSLRLSCAASGITFYDNAMGWYRQAPGKERELVAGISYSGGRTYYADSVKGRFTISRDNAKNTVYLQMNSLKPEDTAVYYCNARFGKYRSRQGYYYWGQGTQVTVSS | high polyreactivity
21 | QVQLVESGGGLVQAGGSLRLSCAASGRIFSHDVMGWYRQAPGKERELVAAISSSGGSTYYADSVKGRFTISRDNAKNTVYLQMNSLKPEDTAVYYCAADQWASGTDDYWGQGTEVTVSS | low polyreactivity

Row | Sequence | polyreactivity (PSR sort gate)
22 | QVHLVESGGCLVQAGGSLRLSCAASGITFGYYAMGWYRQAPGKERELVAAITTRGGSTSDADSVKGRFTISRDNAKNTVYFQMNSLKPEDNAVYYCAARWRQRKSVRYGQHGYDYWGQGTQVTVSS | high polyreactivity
23 | QVPLVESGGGLVQAGGSLRLSCAASGSICWSYAMGWYRQAPGTERELVASITRSGGSTYYADSVKGRFTISRDYAKNSLYLQLNSLKPEETAVYYCNARRTTRWGSSKYEYDYWGQATQVTVSS | high polyreactivity
24 | QVQLVESGGGLVQAGGSLRLSCAASGSTFYGYTMGWYRQAPGKERELVAAISWRGGSTYYADSVKGRFTISRDNAKNTVYLQMNSLKPEDTAVYYFAARPYIVTYPWRRYDYWGQGTQVTVSS | high polyreactivity
25 | QFQLVESGGGLFQAGARLRLSSAASGNIFNWYALGLYRQAPGKEREFVACISTSGGSTYYADSVKGRFTISRDNAKNSVYLQMNSLKPEDTAVYYCNAKFFVYECLPGPSYWYDYWGQGTQVTVSS | high polyreactivity
26 | QVQLVDSGGGLVQAGGSLRLSCSASGIIIKWYTMVWYRQAPGKEREFVAAISYGGGSTSYADSVKGRFTISRDNAKNTVYLQMNSLKPEDTAVYYCAVVWQGAYSRTNYYYWGQGTQVTVSS | low polyreactivity
27 | QVQLVESRGGLVQAGGSLRLSCADSGRIFWYYDMGCYRQAPWKDRELVAAITSGGRTYYADYVKGRFTISRDNAKNTVYLQMNSLKPEDTAVYYCAAEGFYTSGSPYSGGLDYWGQGTQVTVSS | low polyreactivity
28 | QVQLVESGGGLVQAGGSLRLSCAASGITFYRYAMGWYRQAPGKDRELVAVISSGGSTNYADSVKGRFTISRDNAKNTVYLQMNSLKPEDTAVFYCNAVSTRFRVRTSDYWGQGTKVTVSS | high polyreactivity
29 | QVQLVESGGGLVQAGGSLRLSCAASGRIFDYYAMGWYRQAPGKERELVATITSGSRTYYADSVKGRFTISRDNAKNTVYLQMNSLKPEDTAVYYCNTVSFKRLGWRYDYWGQGTQVTVSS | high polyreactivity
30 | QFQLVESGGGLVQAGGSLRISCAASGSIFRRYAMGWYRQAPWKERELVATISSGTTTNYADSVKGRFTISRDNANNSVYLQLNSLKPEDTSVFYCAAVVYGHIRGPGERKSYWGQGTQVTVSS | high polyreactivity
31 | QVQLVESGGGLVQAGGSLRLTCAASGRTFQYYVMVWYRQAPGKEREFVAAISTSGGRTYYADSVKGRFTISRDNAKNSVYLQMNSLKPEATAVYYCAATGFSYRYFQTRDYWGQGTQVTVSS | high polyreactivity
32 | QVQLVESGGGLVQAGGSLRLSCAASGSIFGAYAMGSYRQAPGKERELVASISDGGGTYYADSVKGRFTISRDNAKNTVYLQMNSLKPEDTAVYYCAADPPKRVPGGYWGQGTQVTVSS | low polyreactivity
33 | QVQLLESGGGIVQAGGSLRLSCDSSGSTFGTNAMGWYRQAPGKERELVAVITFSGGSTYYADSVKGRFTISRDNAKNTVYLQMNSLKPEDTAVYYCAKDGFITFVYDHDYWGQGTQVTVSS | low polyreactivity
34 | QVKLVESGGGIVQAGGSLRLSCAASGRIFYSNVMGWYRQAPGKERELVATISGSSGRTYADSVKGRFTISRDNAKNTVYLQMNSLKPEDTAVYYCAADSPSVWGYRYDYDYWGQGTQVTVSS | low polyreactivity
35 | QVQLVESGGGIVQAGGSLRLSCAASGRTLSKNAMGWYRQAPGKERELVATISSVGRTNYADSVKGRFTISRDNAKNTVYLQMNSLKPEDTAVYNCAARRFRGSYYWGQGTQVTVSS | high polyreactivity
36 | QVQLVESGGGLVQAGGSLRLSCAASGFTFAVNAMGWYRQAPGKERELVAAISWSGVSTYYADSVKRRFTISRDNAKNTVYLQMNSLKPEDTAVYYCARRRTKSYTRKYDYWGQGTQVTVSS | low polyreactivity
37 | QVQIVESGGGLVQAGGSLRLSCAASRRIFEYYTMGWYRQAPGKERELVARISSGGSTYYADTVKGRFTISRDNAKNSVYLQLNSLLPEDTAVYYCAAGRGYWWWYGYDYWGQGTEVTVSS | low polyreactivity
38 | QVQLVESGGGLVQAGGSLRLSCAASGSTFVPYALGWYRQAPGKERELVAAITTSGGNTYYADSVKGRFTISRDNAKNTVYLQMNSLKPEDTAVYYCAADTFRRFDYWGQGTQVTVSS | low polyreactivity
39 | QVQLVESGGCLVQAGGSLRLRCAASGFMFGSYAMGWYRQAPGKERELVAAISRRGSSTSYADSVKGRFTISRDNAKNTVYLQMNSLKPEDTAVYFCAPPYLKKWGYYFDGNYWGQGTQVTVSS | high polyreactivity
40 | QVQLVESGGGLVQAGGSLRLSCAASGFNIYYYTMGWYRQAPGKERELVAAISKSGGNTYYADSVKGRFTISRDNAKNTVYLQMNSLKPEDTAVYYCAASRYNTVTYYYWGQGTQVTVSS | high polyreactivity
41 | QVQLVESGGGLVQAGGSLRLSCAASGRTFDGNAMGWYRQAPGKERELVAAISKRGGTTYYADSVKGRFTISRDKAKNTVYLQMTSLKPEDTAVYYCAAPYNTYSYSEGEYWGQGTQVTVST | low polyreactivity
